Experimental data: US20170058005A1 (priority 2014, published 2017)
“Also recorded” adds a separate entry of the source.

Columns and labels:
DRB1*0101 (DR1) = DRB1*0101 (DR1) (Homo sapiens, UniProt P01903+P01911, A100R/D57E/F55L/F60I/F76Y/I96L/L162R/M171V/P40L/Q125E/R42F/V115G/Y59C); type: binding
human PBMCs = type: cell-based
DRB1*1101 (DR11) = DRB1*1101 (DR11) (Homo sapiens, UniProt P01903+P01911, A100R/A169T/A87E/I96F/K41T/L162R/M171V/P40S/Q125H/Q178H/Q39Y/Q99D/R42S/S66Y/T262R/V115G/W38E); type: binding
[1] = tested on: CD4^+ T cells of HLA class II transgenic mice; type: cell-based
DRB1*1501 (DR15) = DRB1*1501 (DR15) (Homo sapiens, UniProt P01903+P01911); type: binding
DRB1*0301 (DR3) = DRB1*0301 (DR3) (Homo sapiens, UniProt P01903+P01911, A100K/A102G/A103R/A169T/F55Y/I96L/K41T/L162R/M171V/P40S/Q125H/Q178H/Q39Y/R42S/S66N/T106N/T262R/W38E/Y61H); type: binding
HLA-DR molecules = type: binding, human
DRB1*0701 (DR7) = DRB1*0701 (DR7) (Homo sapiens, UniProt P01903+P01911, A100R/A102G/A103Q/D57E/D86V/E43K/F76Y/K127E/L162R/M171V/P40G/Q125H/Q99D/R33Q/R42Y/R54Q/S133A/S66F/T210M/V115G/Y107V/Y59L/Y89S); type: binding
DRB1*0401 (DR4) = DRB1*0401 (DR4) (Homo sapiens, UniProt P01903+P01911, A100K/A169T/F76Y/I96L/K127E/L162R/M171V/N62H/P40V/Q125Y/R42H/S133A/S149N/S66Y/V115G/V209L/W38E); type: binding
DRB1*1301 (DR13) = DRB1*1301 (DR13) (Homo sapiens, UniProt P01903+P01911, A100E/A169T/K41T/L162R/M171V/P40S/Q125H/Q178H/Q39Y/Q99D/R42S/S66N/T262R/W38E/Y61H); type: binding

| Sequence | Relative binding affinity of peptide to HLA-DR molecules, DR1 (DRB1*0101 (DR1)) | Strong relative binding affinity of peptide to HLA-DR molecules, DR1 (DRB1*0101 (DR1)) | T cell recognition in human cohorts (human PBMCs) | Relative binding affinity of peptide to HLA-DR molecules, DR11 (DRB1*1101 (DR11)) | Strong relative binding affinity of peptide to HLA-DR molecules, DR11 (DRB1*1101 (DR11)) | CD4 T cell response in LF immunized HLA transgenics [1] | HLA-restriction based on CD4 T cell response class II HLA transgenics after priming with LF [1] | Peptide-specific recall response [1] | Relative binding affinity of peptide to HLA-DR molecules, DR15 (DRB1*1501 (DR15)) | Strong relative binding affinity of peptide to HLA-DR molecules, DR15 (DRB1*1501 (DR15)) | Relative binding affinity of peptide to HLA-DR molecules, DR3 (DRB1*0301 (DR3)) | Strong relative binding affinity of peptide to HLA-DR molecules, DR3 (DRB1*0301 (DR3)) | Binding across all HLA-DR alleles assayed (HLA-DR molecules) | Binding to HLA-DR1, DR4 and DR15 (HLA-DR molecules) | Relative binding affinity of peptide to HLA-DR molecules, DR7 (DRB1*0701 (DR7)) | Strong relative binding affinity of peptide to HLA-DR molecules, DR7 (DRB1*0701 (DR7)) | Relative binding affinity of peptide to HLA-DR molecules, DR4 (DRB1*0401 (DR4)) | Strong relative binding affinity of peptide to HLA-DR molecules, DR4 (DRB1*0401 (DR4)) | Relative binding affinity of peptide to HLA-DR molecules, DR13 (DRB1*1301 (DR13)) | Strong relative binding affinity of peptide to HLA-DR molecules, DR13 (DRB1*1301 (DR13)) |
| --- | --- | --- | --- | --- | --- | --- | --- | --- | --- | --- | --- | --- | --- | --- | --- | --- | --- | --- | --- | --- |
| KIYLYENMNINNLTATLGAD | 0.2 | + (key: +: Strong binding affinity was defined in this study as a relative activity <10) | recognized by a high proportion of naturally infected donors, but not vaccinated individuals | 5 | + (key: +: Strong binding affinity was defined in this study as a relative activity <10) | recognised by all LF immunized HLA transgenics; also recorded: capable of eliciting a T cell response from all the HLA transgenics; also recorded: immunogenic in all three HLA-DR transgenic strains | DR1, DR4, DR15,; also recorded: DQ8, DQ6 | strongest peptide recall in both groups | 0.1 | + (key: +: Strong binding affinity was defined in this study as a relative activity <10) | 1 | + (key: +: Strong binding affinity was defined in this study as a relative activity <10) | strong binding affinity across all HLA-DR alleles assayed | strong binders to all three HLA-DR alleles | 5 | + (key: +: Strong binding affinity was defined in this study as a relative activity <10) | 0.2 | + (key: +: Strong binding affinity was defined in this study as a relative activity <10) | 17 | – |
| LENGKLILQRNIGLEIKDVQI | 0 | + (key: +: Strong binding affinity was defined in this study as a relative activity <10) | – | 3 | + (key: +: Strong binding affinity was defined in this study as a relative activity <10) | identified in HLA-DR1, HLA-DR4 and HLA-DR15 transgenic lines; also recorded: immunogenic in all three HLA-DR transgenic strains | DR1, DR4, DR15 | – | 0.04 | + (key: +: Strong binding affinity was defined in this study as a relative activity <10) | 4 | + (key: +: Strong binding affinity was defined in this study as a relative activity <10) | – | strong binders to all three HLA-DR alleles | 1 | + (key: +: Strong binding affinity was defined in this study as a relative activity <10) | 7 | + (key: +: Strong binding affinity was defined in this study as a relative activity <10) | 9 | + (key: +: Strong binding affinity was defined in this study as a relative activity <10) |
| VENTEKALNVYYEIGKILSR | 1 | – | – | 0.03 | – | – | DR1 | – | 0.2 | – | 418 | – | strong to moderate binding across all seven HLA-DR alleles | – | 36 | – | 81 | – | 71 | – |
| PESRSILLHGPSKGVELRND | 7 | – | – | 120 | – | elicited a T cell response in a single HLA transgenic strain; also recorded: immunodominant epitopes in HLA-DR15 transgenics | DR15 | – | 17 | – | 354 | – | strong to moderate binding across all seven HLA-DR alleles | – | 51 | – | 22 | – | 21 | – |
| QHRDVLQLYAPEAFNYMDKF | 146 | – | – | 5 | – | – | DR1, DQ8 | – | 0.3 | – | 3 | – | strong to moderate binding across all seven HLA-DR alleles | – | 83 | – | 100 | – | 267 | – |
| AKAFAYYIEPQHRDVLQLYA | 115 | – | – | 4 | – | – | DR1 | – | 8 | – | 39 | – | strong to moderate binding across all seven HLA-DR alleles | – | 97 | – | 51 | – | 9 | – |
| EAQLNINQEWNKALGLPKYT | 104 | – | – | 100 | – | DQB1*0302 restricted | DR15, DQ8 | – | 1 | – | 173 | – | strong to moderate binding across all seven HLA-DR alleles | – | 68 | – | 43 | – | 17 | – |
| QSDLIKKVTNYLVDGNGRFV | 12 | – | – | 139 | – | – | DR15 | – | 0.2 | – | 26 | – | strong to moderate binding across all seven HLA-DR alleles | – | 4 | – | 15 | – | 38 | – |
| EYIRIDAKVVPKSKIDTKIQ | 3 | – | – | 21 | – | elicited a T cell response in a single HLA transgenic strain | DRI | – | 156 | – | 1 | – | strong to moderate binding across all seven HLA-DR alleles | – | 12 | – | 15 | – | 24 | – |
